One block for each molecule: values may come before it.
Experiments:
[1] = biological target: Fc fusion protein of Human CTLA4 (human) (UniProt P16410); assay: BLI (Fortebio), human CTLA4 Fc fusion immobilized by amine reactive chemistry
DR5 = DR5 (UniProt O14763 56-440, limits assumed); assay: cell-based or functional assay

Chain of Fc fusion protein of Human CTLA4 (human) (P16410 36-161 limits assumed): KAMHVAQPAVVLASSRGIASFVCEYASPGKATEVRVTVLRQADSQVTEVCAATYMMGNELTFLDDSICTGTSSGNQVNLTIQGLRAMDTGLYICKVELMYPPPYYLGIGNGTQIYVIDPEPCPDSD

Kd [1]: 2 nM
Molecule: Anti CTLA4 IgG (BioLegend A3.B10.G1) (antibody)

B1: anti-DR5 IgM (antibody, V domains shown)
VH: EVQLVQSGGGVERPGGSLRLSCAASGFTFDDYGMSWVRQAPGKGLEWVSGINWNGGSTGYADSVKGRVTISRDNAKNSLYLQMNSLRAEDTAVYYCAKILGAGRGWYFDLWGKGTTVTVSS
VL: SSELTQDPAVSVALGQTVRITCQGDSLRSYYASWYQQKPGQAPVLVIYGKNNRPSGIPDRFSGSSSGNTASLTITGAQAEDEADYYCNSRDSSGNHVVFGGGTKLTVLG
cytotoxic effect, cell viability of COLO205 cells (Cell-Titer Glo), fold against the corresponding IgG (DR5): > 1000 fold

Source: US20190185570A1 (IGM BIOSCIENCES, published 2019)
